Experimental data from the nanobody polyreactivity screen of Harvey et al. (2022).

Assay: yeast display, Sf9 membrane polyspecificity reagent, FACS + sequencing; frameworks hold sequencing errors
How it was run: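 Genes from sorted yeast were amplified by colony PCR, read by MiSeq 2 × 250 sequencing and filtered on CDR length. These cells carried a synthetic nanobody library in Saccharomyces cerevisiae BJ5465 and were sorted by FACS into low and high (top ~1%) gates on anti-HA and streptavidin fluorescence. Polyreactivity is labelled according to the gate of origin.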

Sequence	polyreactivity (PSR sort gate)
QVQLVESGGGLVQAGGSLRLRCAASGSIFYRNAMGWYRQAPGKERELVASITSGGRTNYADSLKGRFTISRDNAKNTVYLQMNSLKPEDTAVYYCAVQYHAASDHSYWGQGTQVTVSS	low polyreactivity
QVQLVESGGGLVQAGGSLRLRCAASGSIIGIYAMGWYRQAPGKERELVAAISWSGGSTYYADSVKGRFTISRDNAKNTVYLQMISLKPVDTAVYYCAARGHYQYYWGQGTQVTVSS	low polyreactivity
QVQLVESGGGLVQAGGSLRLRCAASGSIIVPNAMGWYRQAPGKERELVAAISGRGGSTYYADSEKGRFTISRDNAKNTVSLQMKSLKPEDTAVYYCAAQDTYHSYGLYSWGQGTQVTVSS	low polyreactivity
QVQLVESGGGLVQAGGSLRLRCAASGSSFTGYAMGLYRQAPGKEREFVAAICWTGVSTYYADSVKGSFTISRDNAKNTVYLQMNSLKPEDTAVYYCAVDYVLRDRDLFYIIMEYWGQGTQVTVSS	low polyreactivity
QVQLVESGGGLVQAGGSLRLRCAASGSTFLYYSMGWYREAPGKECELVAAISSTDDSTYADSVKGRFTISRDNAKNTVYLQLNSLKPEDTAVYYCAADVQTLITLGQFDYWGQGTQVTVSS	low polyreactivity
QVQLVESGGGLVQAGGSLRLRCAASGSTFTYYAMGWYRQAPGKERELVAVSNKSGGRTNYADSVKGRFTISRDNAKNTVYLQMNSLKPEDTAVYYCNKVTRREGSYGYPSRYDYWGQGTQVTVSS	high polyreactivity
QVQLVESGGGLVQAGGSLRLRCAASGSTFYGYAMGRYRQAPGTERELVALISSSSGRTYYADSVKGRFTISRDNAKNTLYLQMNSLKPEDTAVYDCAKYVFGKFEGVRYSFDYWGQGTQVTVSS	low polyreactivity
QVQLVESGGGLVQAGGSLRLRCAASGSTFYHNAMGWYRQAPGKERELVAAISTRGTSTYYADSVKGRFTISRDKAKNTVYLQMNSLKPEDTAVYYCNAVYKLRARYDYWGQGTQVTVSS	high polyreactivity
QVQLVESGGGLVQAGGSLRLRCAASGSTFYLNAQGWYRQATGKEREFVAAITVSGGSTYYADSVKARFTISRDNAKNTVYLKMNSLKPEDTAVYYCARELLSPTYQRWYYYWGQGTQVTVSS	low polyreactivity
QVQLVESGGGLVQAGGSLRLRCAASGSTIVQYDMGWYRQAPGKERELVAAISRTGSTYYADSVKGRFTISRDNAKNTVYLQINSLKPEDTAVYYCNAEFWRGTYRFGYWGQGTQVTVSS	low polyreactivity
QVQLVESGGGLVQAGGSLRLRCAASGYTFRGNAMAWYSQAPGKERDLVAGISQTGGNTYYADSVKGRFTISRDNAKNTVYLQMNSLKPEDTAVYYCATTRRPYVRGYPHYYWGQGTEVTVSS	high polyreactivity
QVQLVESGGGLVQAGGSLRLRCASSGGIFVPYAMGWYRQAPGKERELVAGITSGGSTNYADSVKGRFSISRDNAKNTVYLQMNRLKPEDTAVYYCAARRRPGGRYKSRVWYDYWGLGTQVTVSS	high polyreactivity
QVQLVESGGGLVQAGGSLRLRGAASGSIFVYYAMGWYRPAPGKERELVASISESDGSTSYADSVKGRFTISRDNAKNTVYLQMNSLKPEDTAVYYCAADPYFYWYSPSFDYWGQGTQVTVSS	low polyreactivity
QVQLVESGGGLVQAGGSLRLRSAASGGTIARYAMGWYRQATGKERELVAAITKSRDLTYYADSVKGRFTISRDSAKNTVYLQMNSLKPEDTAVYYCARPPSTGYQGGYDYWGQGTQVTVSS	high polyreactivity
QVQLVESGGGLVQAGGSLRLSCAAAGIIFISYDMGWYRPAPGKDRELVARINWDGGSTYYADSVKGRFTISRDKAKHTFYLQTNTLKPEDTAVSYCAAGFVGTNYPLQGFSYEYWGPGTQVTVSS	low polyreactivity
QVQLVESGGGLVQAGGSLRLSCAAAGITFKWNAMGWYRQAPGKERELVAVISSDGRTYYADSVKGRFTSSRDNAKNTVYLQMNSLKPEDTAVYYCARSHSYYPAGPYYYWGQGTQVTVSS	low polyreactivity

Sequence	polyreactivity (PSR sort gate)
QVQLVESGGGLVQAGGSLRLSCAAAGITLYRYVMGWYRQAPGKERELVADISGRGTSTYYADSEKGRFTISRDNAKNTVYLQMNSLKPEDTAVYYCNAEYTKTGALVIPYTYYYAEDYWGQGTQVTVSS	low polyreactivity
QVQLVESGGGLVQAGGSLRLSCAAAGLIFSAYAMGWYRQAPGKEREVVAAISRSGGITYYADSVKGRFTISRDNAKNTVYLQMISLKPEDTAVYYCNARWYDPTLKFGYWGQGTQVTVSS	high polyreactivity
QVQLVESGGGLVQAGGSLRLSCAAAGSIFGDYVMGWYRQAPGKERELVPANTSATSTYYADSVKGRFTISRDNAKNTVYLQMNSLKPEDTAVYYCNADATYPLWPNIWYDYDYWGQGTQVTVSS	low polyreactivity
QVQLVESGGGLVQAGGSLRLSCAAAGSIFGSYAMGWSRQAPGKERELVPAINSGGATIYSDSVKGRFTISRDNAKNTVYLQMNSLKPEDTAVYYCNAPGRRFNRYGGDYWGQGTQVTVSS	high polyreactivity
QVQLVESGGGLVQAGGSLRLSCAAAGSIFVWYVMGWYRQAHGKEMELVAAITWSAARTYYADSVKGRFTISRDNAKNTVYLLMNSLKPEDTAVYYCAADHVSYQPSSRIFDYWGQGTQVTVSS	low polyreactivity
QVQLVESGGGLVQAGGSLRLSCAAAGSTFLRNALGWSRPAPGKKVSWVATISYDGDSTYYADSVKGRFTISRDNAKNTVYLQMNSLKPEDTAVYYCAASYSLTFWDKDDYWGQGTQVTVSS	low polyreactivity
QVQLVESGGGLVQAGGSLRLSCAAAGSTFRYYAMGWYRHAPGKDRELVAAITSGGNTYNADSVKGRFTISRDNAKNTVYLLMNSLKPEDTAVYYCAAVGYLKYDNWGQGTQVTVSS	low polyreactivity
QVQLVESGGGLVQAGGSLRLSCAAAGTTFSHNTMGWYRQAPGKERELVAAITSGGTTYYADSVKGRFTISRDNAKNTVYLQMMSLKPEDTAVYYCAALRPRGGYYYWGQGTQVTVSS	high polyreactivity
QVQLVESGGGLVQAGGSLRLSCAACGLTFGGYVMGWYRQAPGKVRELVAAISGSGGRTYYADSVKGRFTISRDNAKNTVYLQMNSLKPEDTAVYYCARPSRGPPRGYYWGKGTQVTVSS	high polyreactivity
QVQLVESGGGLVQAGGSLRLSCAACGNIFGPYAMGWYRQAPGKERELVAAISFTGVSTYYADSVKGRFTISRDNAKNTVYLQMNSLKPEDTAVYYCSYYRSSTYYYWGQGTQVTVSS	high polyreactivity
QVQLVESGGGLVQAGGSLRLSCAACGNTFYWNAMGLYRQAPGKERELVAAISTTGVSTYYADSVKGRFTISRDNAKNTVYLQMNSLKPEDTAVYYCAAEIIGYHTIYDYWGQGTQVTVSS	low polyreactivity
QVQLVESGGGLVQAGGSLRLSCAACGRTFRGYAMGWYRQAPGKERELVAAITSGGSTYYADSVKGRFTISRDNAKNTDFLEMNSLKPEDTAVYYCNKLYYSGKPRFRYDYWGQGTQVTVSS	high polyreactivity
QVQLVESGGGLVQAGGSLRLSCAACGSIFIGNAMGWYRQAPGKERELVAVISKGGGRTYYADSVKGRFTISRDNAKNTVYLKMNSLKPEDTAVYFCNTRNPESGDYWGQGTQVTVSS	high polyreactivity
QVQLVESGGGLVQAGGSLRLSCAACGSIFRRYAMGWYRQAPGKERELVASIRGGGGTYYADSVKGRFTISRDNAKNTVYLQMNSLKPEDTAVYYCAATRYLAYFRKSFYYWGQGTQVTVSS	high polyreactivity
QVQLVESGGGLVQAGGSLRLSCAACGSTFLYYAMGWYRQAPGKERELVAGISWDGTSTYYADSVKGRFTISRDNAKNSVYLQMNSLKPEDTAVYYCAAFGWSRVYHWRFEWGQGTQVTVSS	low polyreactivity
